From article PMC9723621

Tests used:
[1] = target: ArdK from plasmid R388 containing a C-terminal His tag (ArdKHT) (plasmid R388); assay: SEC; S75 gel filtration of the purified protein in solution
ArdK (ArdKHT) = target: T1, ArdK (ArdKHT) (plasmid R388 (expressed in E. coli …, UniProt Q6I6B7 1-107)); assay: X-ray crystallography (2.6 A); crystal structures only; protein in 20 mM Tris pH 7.5, 150 mM NaCl, 1 mM DTT, 1 mM EDTA (gel filtration buffer); complex and crystallization conditions not in the material; conditions: protein: recombinant; tags: C-terminal His; chain copies: 2; blunt
T1 sequence: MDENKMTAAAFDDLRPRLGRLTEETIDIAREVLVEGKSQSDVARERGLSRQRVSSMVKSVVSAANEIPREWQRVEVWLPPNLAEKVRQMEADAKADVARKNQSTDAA

ArdK (SeMet, ArdKHT) = target: T2, ArdK (SeMet, ArdKHT) (plasmid R388 (expressed in E. coli …, UniProt Q6I6B7 1-107)); assay: X-ray crystallography (2.8 A); crystal structures only; protein in 20 mM Tris pH 7.5, 150 mM NaCl, 1 mM DTT, 1 mM EDTA (gel filtration buffer); complex and crystallization conditions not in the material; conditions: protein: recombinant; tags: C-terminal His; chain copies: 2; blunt
T2 sequence: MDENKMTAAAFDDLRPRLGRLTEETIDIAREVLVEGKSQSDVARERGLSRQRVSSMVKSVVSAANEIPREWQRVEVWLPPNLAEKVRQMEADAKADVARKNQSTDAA

ArdK from plasmid R388 containing a C-terminal His tag (ArdKHT) (natural protein)
stoichiometry N [1]: 2

B1: IR operator, n = 3 spacer (IR_1/IR_2) (dsDNA)
DNA 1: GTAATGTCAATATTTGACA
DNA 2: TGTCAAATATTGACATTAC
binding result (ArdK (ArdKHT)): binds

B2: DR operator, Pssb (DR_1/DR_2) (dsDNA)
DNA 1: GTATTGACACCTATTGACA
DNA 2: TGTCAATAGGTGTCAATAC
binding result (ArdK (SeMet, ArdKHT)): binds
